OD450 data for 14 molecules are collected here from patent publication US20250320312A1 (OXITOPE PHARMA B V, published 2025).

What all share (test): scFv ELISA
In one assay the target is BSA (UniProt P02769).
In assay [1] the target is Peptide 1: Biotin-…-[Tyr(PC)]-acid.
The target of assay [2] is Peptide 5: Biotin-…-[Tyr(PC)]-acid.
In assay [3] the target is T1, Peptide 4: Biotin-AGGGGSGGGGSGGGGSAAA-Tyr-acid (N-terminal biotin; C-terminal acid).
T1 construct: control peptide without PC
T1 peptide: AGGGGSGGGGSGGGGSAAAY
Here is the method: (§1) For ELISA analysis of scFv binding, 96-well polystyrene plates were coated with Peptide 1, 4, 5, 8 or 100 μL BSA (10 μg/mL) in PBS at 4° C. overnight. Plates were washed three times with PBS-Tween and blocked with 100 μL 1% BSA-TBS for 1 hour at room temperature. 96-well streptavidin coated plates were coated with 100 μL biotinylated PC-peptides (1 μg/mL) in PBS for 1 hour at room temperature.
(§2) All plates were washed three times with PBS-Tween before 40 μL aliquots of PPE were added to assay plates along with 50 μL 10% BSA, and plates were incubated for 1 hour at room temperature. After washing, […] HRP conjugated anti-V5 in 5% BSA was added, and plates were incubated at room temperature for 30 mins. Plates were washed and 100 μL TMB substrate was added. Color was left to develop at room temperature before the reaction was stopped with 100 μL 1N HCl. The amount of scFv bound to each well was quantitated from absorbance measurement at 450 nm (OD450).

The target of assay [4] is T2, Peptide 8: Biotin-AEAAAKEAAAKEAAAKEAAAKAAA-Tyr-acid (N-terminal biotin; C-terminal acid).
T2 construct: control peptide without PC
T2 peptide: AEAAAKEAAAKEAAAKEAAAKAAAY
Here is the method: as §1, §2

Sequence of BSA (P02769 25-607 limits assumed): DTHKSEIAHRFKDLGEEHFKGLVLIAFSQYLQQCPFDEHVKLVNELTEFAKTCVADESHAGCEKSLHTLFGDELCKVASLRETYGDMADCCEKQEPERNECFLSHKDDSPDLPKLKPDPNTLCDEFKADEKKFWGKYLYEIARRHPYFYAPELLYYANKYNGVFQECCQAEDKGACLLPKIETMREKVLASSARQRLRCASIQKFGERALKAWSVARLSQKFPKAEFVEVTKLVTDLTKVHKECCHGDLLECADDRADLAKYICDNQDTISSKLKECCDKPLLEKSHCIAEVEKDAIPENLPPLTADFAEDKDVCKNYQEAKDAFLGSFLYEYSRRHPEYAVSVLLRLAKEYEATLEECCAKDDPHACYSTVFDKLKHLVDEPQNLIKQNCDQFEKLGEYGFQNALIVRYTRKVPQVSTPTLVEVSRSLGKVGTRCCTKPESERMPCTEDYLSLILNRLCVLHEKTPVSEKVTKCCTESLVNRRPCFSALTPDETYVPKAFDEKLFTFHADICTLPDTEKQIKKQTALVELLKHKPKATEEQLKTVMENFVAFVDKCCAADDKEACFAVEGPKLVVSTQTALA

B1: PcOxP_DB01_H04 (scFv, V domains shown)
VH: EVQLLESGGGLVQPGGSLRLSCAASGFAFSDFYMEWVRQAPGKGLEWVAASRNKANDYTTEYADSVKGRFTISRDNSKNTLYLQMNSLRAEDTAVYYCARDYYGSHYWYFDVWGQGTLVTVSS
VL: DIQMTQSPSSLSASVGDRVTITCTASESLYSSKHKVHYLAWYQQKPGKAPKLLIYGASNLQSGVPSRFSGSGSGTDFTLTISSLQPEDFATYYCAQFYYYPLTFGGGTKVEIK
notes: scFv in periplasmic extract
As to B1, the OD450 in the assay with BSA came out at 0.11 OD450; in assay [1] it was 2.01 OD450; in assay [2], 1.92 OD450; in assay [3], 0.07 OD450; in assay [4], 0.07 OD450.

B2: PcOxP_DB02_C02 (scFv, V domains shown)
VH: EVQLLESGGGLVQPGGSLRLSCAASGFTFSDFYMEWVRQAPGKGLEWVAASRNKANDYTVEYADSVKGRFTISRDNSKNTLYLQMNSLRAEDTAVYYCARDYYGHSYWYFDVWGQGTLVTVSS
VL: DIQMTQSPSSLSASVGDRVTITCTASESLYSSKHKVHYLAWYQQKPGKAPKLLIYGASNRYIGVPSRFSGSGSGTDFTLTISSLQPEDFATYYCAQFYSYPLTFGGGTKVEIK
notes: scFv in periplasmic extract
B2: the OD450 with BSA was found to be 0.1 OD450; in assay [1] it was 0.35 OD450; in assay [2], 0.62 OD450; in assay [3], 0.05 OD450; in assay [4], 0.05 OD450.

B3: PcOxP_DB02_B10 (scFv, V domains shown)
VH: EVQLLESGGGLVQPGGSLRLSCAASGFTESDFYMEWVRQAPGKGLEWVAASRNKANDYTTEYADSVKGRFTISRDNSKNTLYLQMNSLRAEDTAVYYCARDYYGSSYWYFDVWGQGTLVTVSS
VL: DIQMTQSPSSLSASVGDRVTITCTASESLYSSKHKVHYLAWYQQKPGKAPKLLIYGASNRYIGVPSRFSGSGSGTDFTLTISSLQPEDFATYYCAQFYVYPLTFGGGTKVEIK
notes: scFv in periplasmic extract
In the case of B3, the OD450 in the assay with BSA turned out to be 0.08 OD450; in assay [1], 0.67 OD450; in assay [2] it was 1.03 OD450; in assay [3], 0.04 OD450; in assay [4] it was 0.04 OD450.

B4: PcOxP_DB02_C01 (scFv, V domains shown)
VH: EVQLLESGGGLVQPGGSLRLSCAASGFTFSDAYMEWVRQAPGKGLEWVAASRNKANDYTTEYADSVKGRFTISRDNSKNTLYLQMNSLRAEDTAVYYCARDYYGSSYWYFDVWGQGTLVTVSS
VL: DIQMTQSPSSLSASVGDRVTITCTASESLYSSKHKVHYLAWYQQKPGKAPKLLIYGASNRYIGVPSRFSGSGSGTDFTLTISSLQPEDFATYYCAQFYSYPLTFGGGTKVEIK
notes: scFv in periplasmic extract
Turning to B4, the OD450 was 0.1 OD450 in the assay with BSA; 1.03 OD450 in assay [1]; 1.47 OD450 in assay [2]; 0.06 OD450 in assay [3]; 0.05 OD450 in assay [4].

B5: PcOxP_DB02_A11 (scFv, V domains shown)
VH: EVQLLESGGGLVQPGGSLRLSCAASGFTFSDGYMEWVRQAPGKGLEWVAASRNIANDYTTEYADSVKGRFTISRDNSKNTLYLQMNSLRAEDTAVYYCARDYYGSSYWYFDVWGQGTLVTVSS
VL: DIQMTQSPSSLSASVGDRVTITCTASESLYSSKHKVHYLAWYQQKPGKAPKLLIYGASNRYHGVPSRFSGSGSGTDFTLTISSLQPEDFATYYCAQFYYYPLTFGGGTKVEIK
notes: scFv in periplasmic extract
As to B5, the OD450 worked out at 0.09 OD450 with BSA; 0.64 OD450 in assay [1]; 0.89 OD450 in assay [2]; 0.04 OD450 in assay [3]; 0.04 OD450 in assay [4].

B6: PcOxP_DB02_C06 (scFv, V domains shown)
VH: EVQLLESGGGLVQPGGSLRLSCAASGFTFSDAYMEWVRQAPGKGLEWVAASRNKANDYTTEYADSVKGRFTISRDNSKNTLYLQMNSLRAEDTAVYYCARDYYGSSYWYFDVWGQGTLVTVSS
VL: DIQMTQSPSSLSASVGDRVTITCTASEWLYSSKHKVHYLAWYQQKPGKAPKLLIYGASNRNIGVPSRFSGSGSGTDFTLTISSLQPEDFATYYCAQFYYYPLTFGGGTKVEIK
notes: scFv in periplasmic extract
As for B6, the OD450 in the assay with BSA stood at 0.11 OD450; in assay [1], 0.54 OD450; in assay [2] it was 1.03 OD450; in assay [3], 0.05 OD450; in assay [4] it was 0.05 OD450.

B7: PcOxP_DB02_B06 (scFv, V domains shown)
VH: EVQLLESGGGLVQPGGSLRLSCAASGFTFSDNYMEWVRQAPGKGLEWVAASRNKANDYTTEYADSVKGRFTISRDNSKNTLYLQMNSLRAEDTAVYYCARDYYGSSYWYFDVWGQGTLVTVSS
VL: DIQMTQSPSSLSASVGDRVTITCTASESLYSSKHKVHYLAWYQQKPGKAPKLLIYGASNRYIGVPSRFSGSGSGTDFTLTISSLQPEDFATYYCTQFYSYPLTFGGGTKVEIK
notes: scFv in periplasmic extract
For B7, the OD450 with BSA amounted to 0.11 OD450; in assay [1], 0.35 OD450; in assay [2], 0.79 OD450; in assay [3], 0.07 OD450; in assay [4], 0.04 OD450.

B8: PcOxP_DB02_B12 (scFv, V domains shown)
VH: EVQLLESGGGLVQPGGSLRLSCAASGFTFSDYYMEWVRQAPGKGLEWVAASRNKANDYTTEYADSVKGRFTISRDNSKNTLYLQMNSLRAEDTAVYYCARDYYGSSYWYFDVWGQGTLVTVSS
VL: DIQMTQSPSSLSASVGDRVTITCTASESLYSSKHKVHYLAWYQQKPGKAPKLLIYGQSNRYIGVPSRFSGSGSGTDFTLTISSLQPEDFATYYCAQFYSYPLTFGGGTKVEIK
notes: scFv in periplasmic extract
In the case of B8, the OD450 in the assay with BSA amounted to 0.1 OD450; in assay [1], 2.33 OD450; in assay [2], 1.34 OD450; in assay [3], 0.05 OD450; in assay [4], 0.04 OD450.

B9: PcOxP_DB01_H10 (scFv, V domains shown)
VH: EVQLLESGGGLVQPGGSLRLSCAASGFTFSDGYMEWVRQAPGKGLEWVAASRNKNNDYTTEYADSVKGRFTISRDNSKNTLYLQMNSLRAEDTAVYYCARDYYGSSYWYFDVWGQGTLVTVSS
VL: DIQMTQSPSSLSASVGDRVTITCTASESLYSSKHKVHYLAWYQQKPGKAPKLLIYGASNRYFGVPSRFSGSGSGTDFTLTISSLQPEDFATYYCAQFYQYPLTFGGGTKVEIK
notes: scFv in periplasmic extract
B9: the OD450 with BSA came out at 0.08 OD450; in assay [1] it was 0.6 OD450; in assay [2], 1.39 OD450; in assay [3] it was 0.06 OD450; in assay [4] it was 0.06 OD450.

B10: PcOxP_DB02_A09 (scFv, V domains shown)
VH: EVQLLESGGGLVQPGGSLRLSCAASGFTFSDTYMEWVRQAPGKGLEWVAASRNKANDYTTEYADSVKGRFTISRDNSKNTLYLQMNSLRAEDTAVYYCARDYYGSSYWYFDVWGQGTLVTVSS
VL: DIQMTQSPSSLSASVGDRVTITCTASESLYSSKHKVHYLAWYQQKPGKAPKLLIYGASNRQSGVPSRFSGSGSGTDFTLTISSLQPEDFATYYCAQFYWYPLTFGGGTKVEIK
notes: scFv in periplasmic extract
On to B10, for which the OD450 was found to be 0.11 OD450 with BSA; 0.98 OD450 in assay [1]; 1.3 OD450 in assay [2]; 0.05 OD450 in assay [3]; 0.04 OD450 in assay [4].

B11: PcOxP_DB02_B02 (scFv, V domains shown)
VH: EVQLLESGGGLVQPGGSLRLSCAASGFTFSDYYMEWVRQAPGKGLEWVAASRNSGNDYTTEYADSVKGRFTISRDNSKNTLYLQMNSLRAEDTAVYYCARDYYGSSYWYFDVWGQGTLVTVSS
VL: DIQMTQSPSSLSASVGDRVTITCTASESLYSSKHKVHYLAWYQQKPGKAPKLLIYGASNRLIGVPSRFSGSGSGTDFTLTISSLQPEDFATYYCAQFYWYPLTFGGGTKVEIK
notes: scFv in periplasmic extract
For B11, the OD450 with BSA stood at 0.11 OD450; in assay [1] it was 0.49 OD450; in assay [2] it was 0.98 OD450; in assay [3] it was 0.05 OD450; in assay [4], 0.05 OD450.

B12: PcOxP_DB02_A12 (scFv, V domains shown)
VH: EVQLLESGGGLVQPGGSLRLSCAASGFTFSDDYMEWVRQAPGKGLEWVAASRNKANDYTTEYADSVKGRFTISRDNSKNTLYLQMNSLRAEDTAVYYCARDYQGSSYWYFDVWGQGTLVTVSS
VL: DIQMTQSPSSLSASVGDRVTITCTASESLYSSKHKVHYLAWYQQKPGKAPKLLIYGAFNRYTGVPSRFSGSGSGTDFTLTISSLQPEDFATYYCAQFYTYPLTFGGGTKVEIK
notes: scFv in periplasmic extract
Take B12: the OD450 was determined as 0.06 OD450 with BSA; 0.2 OD450 in assay [1]; 0.27 OD450 in assay [2]; 0.05 OD450 in assay [3]; 0.06 OD450 in assay [4].

B13: PcOxP_DB02_A10 (scFv, V domains shown)
VH: EVQLLESGGGLVQPGGSLRLSCAASGFAFSDFYMEWVRQAPGKGLEWVAASRNKANDYTTEYADSVKGRFTISRDNSKNTLYLQMNSLRAEDTAVYYCARDYYGSSYWYFDVWGQGTLVTVSS
VL: DIQMTQSPSSLSASVGDRVTITCTASESLYSSKHKVHYLAWYQQKPGKAPKLLIYGASNRQSGVPSRFSGSGSGTDFTLTISSLQPEDFATYYCAQFYAYPLTFGGGTKVEIK
notes: scFv in periplasmic extract
On to B13, for which the OD450 was 0.11 OD450 in the assay with BSA; 0.42 OD450 in assay [1]; 0.9 OD450 in assay [2]; 0.05 OD450 in assay [3]; 0.04 OD450 in assay [4].

B14: PcOxP_DB02_A06 (scFv, V domains shown)
VH: EVQLLESGGGLVQPGGSLRLSCAASGFTFSDQYMEWVRQAPGKGLEWVAASRNKANDYTTEYADSVKGRFTISRDNSKNTLYLQMNSLRAEDTAVYYCARDYYGSSYWYFDVWGQGTLVTVSS
VL: DIQMTQSPSSLSASVGDRVTITCTASESLYSSKHKVHYLAWYQQKPGKAPKLLIYGLSNRYIGVPSRFSGSGSGTDFTLTISSLQPEDFATYYCAQFYSYPLTFGGGTKVEIK
notes: scFv in periplasmic extract
With B14, the OD450 with BSA is 0.1 OD450; in assay [1] it was 1.12 OD450; in assay [2], 1.07 OD450; in assay [3], 0.05 OD450; in assay [4], 0.05 OD450.
